One block for each molecule: values may come before it.
Tests used:
[1] = molecular target: cynomologus (cyno) ENTPD2; experiment: Biacore (SPR) affinity to cyno ENTPD2 ECD; assay type: binding, cynomolgus monkey; details: 25° C.
Experimental: Biacore Screening: Affinity was measured by determining the kinetic rate constants using surface plasmon resonance (SPR) on a Biacore T200 or T100 with the T200 sensitivity upgrade instrument (Biacore, GE Healthcare). Antibodies were captured on CM5 sensor chips (Biacore, GE Healthcare) prepared with a mouse anti-human IgG Fc antibody (ThermoFisher catalogue #05-4200) amine coupled to the surface. […] ENTPD2 analytes were allowed to associate for 180 s and dissociate for up to 1800 s depending on the off-rate of the antibody at a flow rate of 30 μL/min. The running buffer was PBS pH 7.2 (prepared from a Corning 10X stock, cat#46-013-CM)+0.05% Tween 20. Regeneration was accomplished with 30 s injections of 3 or 4 M MgCl2 to remove all the captured antibody and remaining complex from the surface, after which fresh antibody was captured. The raw data were analyzed using Biacore T200 Evaluation Software version 1.0 and fit to a 1:1 binding model, with all parameters set to fit globally except for RI, which was set to fit locally.

mouse ENTPD2 = molecular target: T1, mouse ENTPD2 (Mus musculus, UniProt O55026); experiment: Antibody specificity: binding to mouse ENTPD2; details: Mouse ENTPD2
T1 construct: residues 29-462 of mouse or rat ENTPD2 (the extracellular domain); mouse IgK signal peptide (N); His6; made in house; host or cells: FreeStyle 293-F cells, transient transfection
T1 sequence (O55026 29-462): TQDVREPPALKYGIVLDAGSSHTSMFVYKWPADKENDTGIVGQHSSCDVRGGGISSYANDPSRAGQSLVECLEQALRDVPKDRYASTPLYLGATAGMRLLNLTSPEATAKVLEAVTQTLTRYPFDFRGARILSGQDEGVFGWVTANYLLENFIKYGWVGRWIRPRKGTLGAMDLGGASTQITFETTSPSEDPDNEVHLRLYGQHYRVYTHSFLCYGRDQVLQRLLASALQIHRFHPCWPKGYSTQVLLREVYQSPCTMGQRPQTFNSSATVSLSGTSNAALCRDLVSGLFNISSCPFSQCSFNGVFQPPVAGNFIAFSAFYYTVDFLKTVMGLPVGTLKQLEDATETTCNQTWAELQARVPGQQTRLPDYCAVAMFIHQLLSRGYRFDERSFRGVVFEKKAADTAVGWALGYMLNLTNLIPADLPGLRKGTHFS
Text: Antibody specificity for mAbl-mAblO was confirmed. […] Antibodies mAb8, mAb9, and mAb10 show weak affinity to mouse ENTPD2. None of the selected antibodies bind to rat ENTPD2.

cyno ENTPD2 = experiment: FACS binding to cyno ENTPD2 expressing cells (apparent FACS affinity); parameters: species or system cynomolgus monkey
Experimental: (§1) FACS screening: Specific binding of candidate antibodies to endogenously expressed ENTPD2 was assessed by flow cytometry. Cells were rinsed thoroughly with 1×PBS and treated with Accutase (Millipore #SCR005) to lift from growth plates and resuspended at approximately 1×10^5 cells/90 μL in 1× FACS buffer (2% FBS+0.1% NaN3 in PBS). In a 96-well U-bottom plate, 10 μL of 10× antibody solution in FACS buffer was pre-seeded and 90 μL of cell suspension was added. Cell were incubated for 30 minutes at 4° C., washed 1× with cold PBS and resuspended in 100 μL of 1:500 secondary antibody 1× FACS buffer (Allophycocyanin conjugated F(ab′)2 goat anti-human IgG, Fcγ specific; Jackson Immunoresearch, Cat#109-136-098). After additional incubation for 15 min at 4° C., cells were washed twice with PBS and resuspended in 100 μL of 1×FACS buffer with 4 μg/mL propidium iodide (Life Technologies, Cat#P3566). Geometric mean fluorescence intensity was calculated on live single cells using FlowJo software.

ENTPD2 = molecular target: T2, ENTPD2 (Homo sapiens, UniProt Q9Y5L3); experiment: FACS binding to human ENTPD2 expressing cells (apparent FACS affinity); parameters: expressed in transfected cells; host or cells: NIH/3T3 (retroviral transduction)
T2 sequence (Q9Y5L3 1-495): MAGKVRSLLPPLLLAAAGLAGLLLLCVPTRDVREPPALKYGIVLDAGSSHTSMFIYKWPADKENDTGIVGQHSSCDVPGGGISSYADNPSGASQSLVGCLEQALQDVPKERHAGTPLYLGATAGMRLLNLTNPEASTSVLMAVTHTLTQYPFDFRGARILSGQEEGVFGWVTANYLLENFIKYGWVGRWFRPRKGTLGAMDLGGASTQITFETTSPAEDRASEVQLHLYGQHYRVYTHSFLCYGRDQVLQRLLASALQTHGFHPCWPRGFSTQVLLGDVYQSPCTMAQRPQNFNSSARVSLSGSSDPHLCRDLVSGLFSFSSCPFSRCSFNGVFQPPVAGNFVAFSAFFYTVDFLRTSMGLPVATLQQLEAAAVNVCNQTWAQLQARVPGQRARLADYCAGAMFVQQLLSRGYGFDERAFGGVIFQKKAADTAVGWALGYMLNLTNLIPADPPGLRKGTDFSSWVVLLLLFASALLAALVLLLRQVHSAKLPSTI
Experimental: as §1, with “FACS screening: Specific binding of candidate antibodies to endogenously expressed ENTPD2 was assessed by flow cytometry.” left out

Sequence of cynomologus (cyno) ENTPD2 (as listed by the source): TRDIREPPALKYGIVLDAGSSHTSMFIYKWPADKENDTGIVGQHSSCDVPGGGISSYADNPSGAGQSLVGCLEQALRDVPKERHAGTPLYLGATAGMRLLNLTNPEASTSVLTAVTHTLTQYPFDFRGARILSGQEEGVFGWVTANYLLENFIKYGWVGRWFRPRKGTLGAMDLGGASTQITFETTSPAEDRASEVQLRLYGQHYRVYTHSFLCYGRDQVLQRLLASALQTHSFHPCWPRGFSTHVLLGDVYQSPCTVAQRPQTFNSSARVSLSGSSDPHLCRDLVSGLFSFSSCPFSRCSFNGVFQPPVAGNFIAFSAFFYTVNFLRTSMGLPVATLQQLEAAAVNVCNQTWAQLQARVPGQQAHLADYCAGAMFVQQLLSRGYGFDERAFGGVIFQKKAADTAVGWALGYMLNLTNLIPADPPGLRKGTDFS
Sequence of cyno ENTPD2 (as listed by the source): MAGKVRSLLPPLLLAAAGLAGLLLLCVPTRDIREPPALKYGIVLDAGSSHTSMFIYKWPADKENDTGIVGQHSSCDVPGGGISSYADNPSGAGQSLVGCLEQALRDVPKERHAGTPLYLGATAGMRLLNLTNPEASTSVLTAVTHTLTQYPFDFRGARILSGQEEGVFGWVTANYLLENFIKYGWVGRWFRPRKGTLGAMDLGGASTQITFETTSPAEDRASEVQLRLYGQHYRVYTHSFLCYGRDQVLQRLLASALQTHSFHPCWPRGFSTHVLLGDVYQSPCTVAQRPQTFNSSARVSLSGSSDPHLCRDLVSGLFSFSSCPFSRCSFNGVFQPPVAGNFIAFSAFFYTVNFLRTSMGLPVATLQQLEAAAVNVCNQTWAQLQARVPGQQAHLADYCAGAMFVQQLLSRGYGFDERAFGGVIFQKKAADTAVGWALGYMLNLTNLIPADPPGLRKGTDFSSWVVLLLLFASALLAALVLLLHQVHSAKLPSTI

Kd [1]: 1.1 nM
kd [1]: 0.0012 s⁻¹
BIACore KD (mouse ENTPD2): No binding
EC50 (cyno ENTPD2; NIH3T3 cynoENTPD2 cells): 0.8 nM
EC50 (ENTPD2; NIH3T3 humanENTPD2 cells): 0.5 nM
B1: mAb7: humanized anti-human ENTPD2 antibody from mAb17; VH SEQ ID NO: 25, VL SEQ ID NO: 78 (antibody, V domains shown)
VH: QVQLVQSGAEVVKPGASVKISCKASGYTFTDYNMDWVKQAPGQRLEWIGDINPKYDISTYNQQFKGKATITVDKSASTAYMELSSLRSEDTAVYYCARRGFFLYYGINYYYFDVWGQGTLVTVSS
VL: EIVLTQSPATLSASPGEEITLSCSASSSVSYIHWYQQKPGQAPRLLIYSTSNLASGIPARFSGSGSGTFYTLTISSVEPEDAAVYYCHQWSSYPWTFGGGTKLEIK
ka [1]: 1.2e+06 M⁻¹ s⁻¹

B2: mAb13: anti-mouse ENTPD2 antibody; HC SEQ ID NO: 193, LC SEQ ID NO: 204 (antibody)
heavy: QVQLVQSGAELKQPGQSVKISCKASGYTFTHYGMNWVKQAPGQGLKWMGWINTDTGNPTYADDFKGRFVFSLDTSVSTAYLQISNLKNEDTATYYCVRYGTLYSGYGFFFDSWGQGTLVTVSSAKTTAPSVYPLAPVCGDTTGSSVTLGCLVKGYFPEPVTLTWNSGSLSSGVHTFPAVLQSDLYTLSSSVTVTSSTWPSQSITCNVAHPASSTKVDKKIEPRGPTIKPCPPCKCPAPNLLGGPSVFIFPPKIKDVLMISLSPIVTCVVVDVSEDDPDVQISWFVNNVEVHTAQTQTHREDYNSTLRVVSALPIQHQDWMSGKEFKCKVNNKDLPAPIERTISKPKGSVRAPQVYVLPPPEEEMTKKQVTLTCMVTDFMPEDIYVEWTNNGKTELNYKNTEPVLDSDGSYFMYSKLRVEKKNWVERNSYSCSVVHEGLHNHHTTKSFSRTPGK
light: DIMMTQSPSSLSVSAGEKATITCKSSQSLFNSNTNKNYLNWYLQKPGQSPKLLFYYASTRHTGVPDRFIGSGSGTDFTLTITSVQDEDLADYYCQQWYSYPWTFGPGTKLEIKRADAAPTVSIFPPSSEQLTSGGASVVCFLNNFYPKDINVKWKIDGSERQNGVLNSWTDQDSKDSTYSMSSTLTLTKDEYERHNSYTCEATHKTSTSPIVKSFNRNEC
binding to cyno ENTPD2 (cyno ENTPD2): no binding
binding to human ENTPD2 (ENTPD2): no binding

Reference: US20220348651A1, “ENTPD2 ANTIBODIES, COMBINATION THERAPIES, AND METHODS OF USING THE ANTIBODIES AND COMBINATION THERAPIES” (Novartis AG, priority 2019, published 2022)
